For experiment [1], the target named is biotinylated human SIRPα allele 1 domain 1 (a1d1) (human) (UniProt P78324). Briefly: SPR, Biacore T100, biotinylated SIRPα on SA chip, 25 C, 1:1 Langmuir model. Background: Surface plasmon resonance follows binding to a sensor surface in real time, without labels.
For experiment [2], the target named is biotinylated human SIRPα allele 2 domain 1 (a2d1) (human) (UniProt P78324). The experiment is described as above.

pKd: −log10 of the molar value.

biotinylated human SIRPα allele 1 domain 1 (a1d1) (human), sequence (P78324 other isoform, or with tags, fused parts or gaps): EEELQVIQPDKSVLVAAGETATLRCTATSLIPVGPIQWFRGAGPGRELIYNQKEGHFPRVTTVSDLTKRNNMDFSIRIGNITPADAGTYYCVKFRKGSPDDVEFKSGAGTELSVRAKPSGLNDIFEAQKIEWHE
biotinylated human SIRPα allele 2 domain 1 (a2d1) (human), sequence (P78324 other isoform, or with tags, fused parts or gaps): as above

Usually pKd stands for −log10 of the Kd, conventionally taken in molar units. Turning to “WT CD47 (human CD47 IgSF domain, C15G, C-terminal 8x histidine tag) (from UniProt Q08722 19-135) (ligand)”, the pKd is 6.55 in experiment [1] and 6.32 in experiment [2].

For the origin of these results see patent publication US20180127480A1.
